B1: mAb 5D7.2 (antibody, human IgG2, lambda, V domains shown)
VH: QVQLVQSGAEVKKPGASVKVSCKASGYTFTDYYMNWVRQAPGQGLEWMGWINPNSGGTKYAQKFQGRVTMTRDTSIRTAYMELSRLRSDDTAVYYCAREYGGNSDWFDPWGQGTLVTVSS
VL: QSVLTQPPSVSGAPGQRVTISCTGSSSNIGAGYDVHWYQQSPGTAPKLLIYGNSNRPSGVPDRFSGSKSGTSASLAITGLQAEDEADYYCQSYDNRLSDSVVIGGGTKLTVQG
notes: fully human IgG2 lambda, Campaign 2, recombinant
B2: mAb 5B5.1 (antibody, human IgG2, lambda, V domains shown)
VH: QVQLVQSGAEVKKPGASVKVSCKASGYTFTDYYINWVRQAPGQGLEWMGWINPNSGGTDYAQKFQGRVTMTRDTSIRTAYMELNRLTSDDTAVYYCAREYGGYEDWFDPWGQGTLVTVSS
VL: QSVLTQPPSVSGAPGQRVTISCTGSNSNIGAGFDVHWYQQLPGTVPKLLIYGNNNRPSGVPDRFSGSKSGTSASLAITGLQAEDEADYYCQSYDSRLTVFGGGTKLTVLG
notes: fully human IgG2 lambda, Campaign 2, recombinant; same chains as 5B5.2
B3: mAb 5H3.1 (antibody, human IgG2, lambda, V domains shown)
VH: QVQLVQSGAEVKKPGASVKVSCKASGYTFTDYYMNWVRQAPGQGLEWMGWINPNSGGTKYAQKFQGRVTMTRDTSIRTAYMELSRLRSDDTAVYYCAREYGGNSDWFDPWGQGTLVTVSS
VL: QSVLTQPPSVSGAPGQRVTISCTGSSSNIGAGYDVHWYQQLPGTAPKLLIYGNSNRPSGVPDRFSGSKSGTSASLAITGLQAEDEADYYCQSYDNRLSDSVVIGGGTKLAVQG
notes: as for B1

What was measured:
human Orai1 [1] = biological target: T1, human Orai1 (human, UniProt Q96D31 1-301); assay: cell-based or functional assay
T1 sequence (Q96D31 whole entry): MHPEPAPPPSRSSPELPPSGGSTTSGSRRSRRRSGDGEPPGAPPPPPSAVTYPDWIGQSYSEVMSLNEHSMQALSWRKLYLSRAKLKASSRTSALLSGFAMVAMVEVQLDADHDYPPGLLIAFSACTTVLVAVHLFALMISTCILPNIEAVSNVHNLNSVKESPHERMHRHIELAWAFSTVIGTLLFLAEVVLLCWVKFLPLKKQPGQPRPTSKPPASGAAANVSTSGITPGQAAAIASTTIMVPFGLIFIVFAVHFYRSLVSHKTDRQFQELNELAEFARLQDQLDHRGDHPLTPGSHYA

human Orai1 [2] = biological target: T1, human Orai1; assay: FACS Kd, AM1-CHO/hOrai1/hSTIM1-YFP cells
Protocol: The equilibrium plates were centrifuged at 500 g for 3 minutes and cell pellets were washed twice with 200 μL of ice cold FACS buffer (1×D-PBS+2% FBS). The cells were then incubated with a secondary antibody, goat anti-human Fc Cy5 at 5 μg/mL and 100 μL per well for 1 h on ice in the dark. Following the incubation, the cells were washed twice with 200 μL of ice-cold FACS buffer before flow cytometry analysis. The GeoMean values gated on live cell population measure the bound [Ab]. The inverse of the GeoMean values that reflects theoretical free [Ag] in the equilibrium solution was then calculated. The inverse values of the GeoMean read were used in KinExA® Pro software for analysis and Kd calculation for each antibody. The free [Ag] measure was plotted against the starting concentration of titrating component and from these plots at two different cell concentrations the Kd was obtained from curve fitting using n-curve analysis in KinExA Pro software. […] Shown in Table 14 (below) are the equilibrium dissociation constant (Kd) values of invented mAbs determined by FACS Kd measurement.

Binder | IC50 IFN-γ, whole blood Donor A, recombinant mAb (human Orai1 [1]) | IC50 IFN-γ, whole blood Donor B, recombinant mAb (human Orai1 [1]) | IC50 IL-2, whole blood Donor A, recombinant mAb (human Orai1 [1]) | IC50 IL-2, whole blood Donor B, recombinant mAb (human Orai1 [1]) | Kd (human Orai1 [2])
B1 | 2.67 nM | 1.17 nM | 3.17 nM | 0.8 nM | 0.483 nM
B2 | 0.8 nM | 42.9 nM | 1.34 nM | 1.14 nM | 0.735 nM
B3 | 0.1 nM | 2.55 nM | 0.87 nM | 1.59 nM | 0.649 nM

From patent US20120231006A1 (Amgen, published 2012)
